Assays:
mPOMC promoter = test: NHR-promoter luciferase screen, mPOMC promoter; format: cell-based, mouse; settings: for Results of assays of transcription factor (+/- ligand) with mPOMC: Table 6d, luciferase activity relative to control (control = 1.00); for Luc. act., normalized to lacZ / Normalized Luc. act., normalized to control: mPOMC promoter, HR component with or without ligand; for Normalized Luc. act., normalized to control: relative to control
Method in brief: (§1)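 CV-1 cells were co-transfected with 50 ng NHR (homodimer or NHR/RXR heterodimer), 100 ng promoter-luciferase construct and 50 ng LacZ. Luciferase was normalized to LacZ and to a no-NHR/no-ligand control.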

mDio1 promoter = test: NHR-promoter luciferase screen, mDio1 promoter; format: cell-based, mouse; settings: for Luc. act., normalized to lacZ / Normalized Luc. act., normalized to control: Dio1, HR component without or with its ligand; for mDio1 promoter reporter activity: transcription factor +/- ligand, control = 1.00
Method in brief: as §1

hIFNg promoter = test: NHR-promoter luciferase screen, hIFNg promoter; format: cell-based, human; settings: for Luc. act., normalized to lacZ / Normalized Luc. act., normalized to control: IFNg promoter, HR component without or with ligand; for hIFNg promoter reporter activity: transcription factor +/- ligand, control = 1.00
Method in brief: as §1

mAdiponectin promoter = test: NHR-promoter luciferase screen, mAdiponectin promoter; format: cell-based, mouse; settings: for Luc. act., normalized to lacZ / Normalized Luc. act., normalized to control: Adiponectin, HR component without or with its ligand; for mAdiponectin promoter reporter activity: transcription factor +/- ligand, control = 1.00
Method in brief: as §1

mPgc1b promoter = test: NHR-promoter luciferase screen, mPgc1b promoter; format: cell-based, mouse; settings: for Luc. act., normalized to lacZ / Normalized Luc. act., normalized to control: PGC1b promoter reporter, co-transfected HR, without or with its ligand; for Normalized Luc. act., normalized to control: relative to control; for luciferase activity normalized to lacZ activity and to a control, mPgc1b: mPgc1b promoter-luciferase, CV-1 cells, NHR +/- ligand, control = 1.00
Method in brief: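 Luciferase reporter read-out after co-expression in CV-1 cells of V5H6-tagged receptor (alone or with RXR), the promoter construct and LacZ. Values are luciferase/LacZ relative to a control lacking NHR or ligand; orphan receptors tested ligand-free.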

hTNFa promoter = test: NHR-promoter luciferase screen, hTNFa promoter; format: cell-based, human; settings: for Luc. act., normalized to lacZ / Normalized Luc. act., normalized to control: TNFa promoter, HR component without or with ligand; for hTNFa promoter reporter activity: transcription factor +/- ligand, control = 1.00
Method in brief: as §1

Molecule | Results of assays of transcription factor (+/- ligand) with mPOMC (mPOMC promoter) | Luc. act., normalized to lacZ (mPOMC promoter) | Normalized Luc. act., normalized to control (mPOMC promoter) | Luc. act., normalized to lacZ (mDio1 promoter) | Normalized Luc. act., normalized to control (mDio1 promoter) | mDio1 promoter reporter activity (mDio1 promoter) | Luc. act., normalized to lacZ (hIFNg promoter) | Normalized Luc. act., normalized to control (hIFNg promoter) | hIFNg promoter reporter activity (hIFNg promoter) | Luc. act., normalized to lacZ (mAdiponectin promoter) | Normalized Luc. act., normalized to control (mAdiponectin promoter) | mAdiponectin promoter reporter activity (mAdiponectin promoter) | Luc. act., normalized to lacZ (mPgc1b promoter) | Normalized Luc. act., normalized to control (mPgc1b promoter) | luciferase activity normalized to lacZ activity and to a control, mPgc1b (mPgc1b promoter) | Luc. act., normalized to lacZ (hTNFa promoter) | Normalized Luc. act., normalized to control (hTNFa promoter) | hTNFa promoter reporter activity (hTNFa promoter)
Erb: Estrogen Receptor β (NR3A2, ERb), cDNA driver (protein, UniProt Q92731 1-530, looked up) Estrogen receptor beta: MDIKNSPSSLNSPSSYNCSQSILPLEHGSIYIPSSYVDSHHEYPAMTFYSPAVMNYSIPSNVTNLEGGPGRQTTSPNVLWPTPGHLSPLVVHRQLSHLYAEPQKSPWCEARSLEHTLPVNRETLKRKVSGNRCASPVTGPGSKRDAHFCAVCSDYASGYHYGVWSCEGCKAFFKRSIQGHNDYICPATNQCTIDKNRRKSCQACRLRKCYEVGMVKCGSRRERCGYRLVRRQRSADEQLHCAGKAKRSGGHAPRVRELLLDALSPEQLVLTLLEAEPPHVLISRPSAPFTEASMMMSLTKLADKELVHMISWAKKIPGFVELSLFDQVRLLESCWMEVLMMGLMWRSIDHPGKLIFAPDLVLDRDEGKCVEGILEIFDMLLATTSRFRELKLQHKEYLCVKAMILLNSSMYPLVTATQDADSSRKLAHLLNAVTDALVWVIAKSGISSQQQSMRLANLLMLLSHVRHASNKGMEHLLNMKCKNVVPVYDLLLEMLNAHVLRGCKSSITGSECSPAEDSKSKEGSQNPQSQ | 1.00 | 69.1 | 1.0 | 9.3 | 2.1 | 2.09 | 22.0 | 1.4 | 1.39 | 68.6 | 1.1 | 1.09 | 9.2 | 0.8 | 0.77 | 811.5 | 0.8 | 0.83
ERR3: Estrogen Related Receptor γ (NR3B3, ERRg), cDNA driver (protein, UniProt P62508 1-458, looked up) Estrogen-related receptor …: MDSVELCLPESFSLHYEEELLCRMSNKDRHIDSSCSSFIKTEPSSPASLTDSVNHHSPGGSSDASGSYSSTMNGHQNGLDSPPLYPSAPILGGSGPVRKLYDDCSSTIVEDPQTKCEYMLNSMPKRLCLVCGDIASGYHYGVASCEACKAFFKRTIQGNIEYSCPATNECEITKRRRKSCQACRFMKCLKVGMLKEGVRLDRVRGGRQKYKRRIDAENSPYLNPQLVQPAKKPYNKIVSHLLVAEPEKIYAMPDPTVPDSDIKALTTLCDLADRELVVIIGWAKHIPGFSTLSLADQMSLLQSAWMEILILGVVYRSLSFEDELVYADDYIMDEDQSKLAGLLDLNNAILQLVKKYKSMKLEKEEFVTLKAIALANSDSMHIEDVEAVQKLQDVLHEALQDYEAGQHMEDPRRAGKMLMTLPLLRQTSTKAVQHFYNIKLEGKVPMHKLFLEMLEAKV | 2.02 | 139.4 | 2.0 | 5.9 | 1.3 | 1.32 | 27.9 | 1.8 | 1.75 | 69.7 | 1.1 | 1.11 | 20.1 | 1.7 | 1.70 | 2705.8 | 2.8 | 2.75
CTF1: COUP-TF1 (NR2F1), cDNA driver (protein, UniProt P10589 1-423, looked up) COUP transcription factor 1: MAMVVSSWRDPQDDVAGGNPGGPNPAAQAARGGGGGAGEQQQQAGSGAPHTPQTPGQPGAPATPGTAGDKGQGPPGSGQSQQHIECVVCGDKSSGKHYGQFTCEGCKSFFKRSVRRNLTYTCRANRNCPIDQHHRNQCQYCRLKKCLKVGMRREAVQRGRMPPTQPNPGQYALTNGDPLNGHCYLSGYISLLLRAEPYPTSRYGSQCMQPNNIMGIENICELAARLLFSAVEWARNIPFFPDLQITDQVSLLRLTWSELFVLNAAQCSMPLHVAPLLAAAGLHASPMSADRVVAFMDHIRIFQEQVEKLKALHVDSAEYSCLKAIVLFTSDACGLSDAAHIESLQEKSQCALEEYVRSQYPNQPSRFGKLLLRLPSLRTVSSSVIEQLFFVRLVGKTPIETLIRDMLLSGSSFNWPYMSIQCS | 0.73 | 50.0 | 0.7 | 17.3 | 3.9 | 3.89 | 31.8 | 2.0 | 2.00 | 118.7 | 1.9 | 1.89 | 6.7 | 0.6 | 0.57 | 728.5 | 0.7 | 0.74
CTF2: COUP-TF2 (NR2F2), cDNA driver (protein, UniProt P24468 1-414, looked up) COUP transcription factor 2: MAMVVSTWRDPQDEVPGSQGSQASQAPPVPGPPPGAPHTPQTPGQGGPASTPAQTAAGGQGGPGGPGSDKQQQQQHIECVVCGDKSSGKHYGQFTCEGCKSFFKRSVRRNLSYTCRANRNCPIDQHHRNQCQYCRLKKCLKVGMRREAVQRGRMPPTQPTHGQFALTNGDPLNCHSYLSGYISLLLRAEPYPTSRFGSQCMQPNNIMGIENICELAARMLFSAVEWARNIPFFPDLQITDQVALLRLTWSELFVLNAAQCSMPLHVAPLLAAAGLHASPMSADRVVAFMDHIRIFQEQVEKLKALHVDSAEYSCLKAIVLFTSDACGLSDVAHVESLQEKSQCALEEYVRSQYPNQPTRFGKLLLRLPSLRTVSSSVIEQLFFVRLVGKTPIETLIRDMLLSGSSFNWPYMAIQ | 0.94 | 64.6 | 0.9 | 20.9 | 4.7 | 4.69 | 35.0 | 2.2 | 2.20 | 75.1 | 1.2 | 1.20 | 12.2 | 1.0 | 1.03 | 1014.3 | 1.0 | 1.03
CTF3: COUP-TF3 (NR2F6), cDNA driver (protein, UniProt P10588 1-404, looked up) Nuclear receptor subfamily 2 …: MAMVTGGWGGPGGDTNGVDKAGGYPRAAEDDSASPPGAASDAEPGDEERPGLQVDCVVCGDKSSGKHYGVFTCEGCKSFFKRSIRRNLSYTCRSNRDCQIDQHHRNQCQYCRLKKCFRVGMRKEAVQRGRIPHSLPGAVAASSGSPPGSALAAVASGGDLFPGQPVSELIAQLLRAEPYPAAAGRFGAGGGAAGAVLGIDNVCELAARLLFSTVEWARHAPFFPELPVADQVALLRLSWSELFVLNAAQAALPLHTAPLLAAAGLHAAPMAAERAVAFMDQVRAFQEQVDKLGRLQVDSAEYGCLKAIALFTPDACGLSDPAHVESLQEKAQVALTEYVRAQYPSQPQRFGRLLLRLPALRAVPASLISQLFFMRLVGKTPIETLIRDMLLSGSTFNWPYGSGQ | 0.75 | 51.8 | 0.8 | 10.0 | 2.2 | 2.23 | 28.5 | 1.8 | 1.79 | 71.0 | 1.1 | 1.13 | 4.9 | 0.4 | 0.42 | 932.4 | 0.9 | 0.95
ERR2: Estrogen Related Receptor β (NR3B2, ERRb), cDNA driver (protein, UniProt O95718 1-433, looked up) Steroid hormone receptor ERR2: MSSDDRHLGSSCGSFIKTEPSSPSSGIDALSHHSPSGSSDASGGFGLALGTHANGLDSPPMFAGAGLGGTPCRKSYEDCASGIMEDSAIKCEYMLNAIPKRLCLVCGDIASGYHYGVASCEACKAFFKRTIQGNIEYSCPATNECEITKRRRKSCQACRFMKCLKVGMLKEGVRLDRVRGGRQKYKRRLDSESSPYLSLQISPPAKKPLTKIVSYLLVAEPDKLYAMPPPGMPEGDIKALTTLCDLADRELVVIIGWAKHIPGFSSLSLGDQMSLLQSAWMEILILGIVYRSLPYDDKLVYAEDYIMDEEHSRLAGLLELYRAILQLVRRYKKLKVEKEEFVTLKALALANSDSMYIEDLEAVQKLQDLLHEALQDYELSQRHEEPWRTGKLLLTLPLLRQTAAKAVQHFYSVKLQGKVPMHKLFLEMLEAKV | 1.57 | 108.6 | 1.6 | 13.6 | 3.1 | 3.05 | 58.9 | 3.7 | 3.70 | 55.3 | 0.9 | 0.88 | 12.7 | 1.1 | 1.07 | 1655.6 | 1.7 | 1.68

— patent publication US20110263454A1, “Methods of Identifying Functional Characteristics of Promoters, Transcription Modifying Proteins and Transcription Modulating Agents” (Salk Institute for Biological Studies, priority 2008, published 2011)
